Entries after “also recorded” stand apart in the source; their conditions may differ.
What was measured:
DKK3 = molecular target: T1, DKK3 (Homo sapiens, UniProt Q9UBP4); assay: Cell surface binding of His-tagged rhDKK3 by flow cytometry; conditions: BxPC3 or L3.6p1 cells, rhDKK3 10 μg/ml, JM6-6-1 70 μg/ml
T1 construct: purchased R&D
Experimental: FIGS. 11A-C. DKK3 expression in autochthonous model of PDAC and effects of DKK3 mAb on cell surface binding of DKK3 and orthotopic model. (FIG. 11A) DKK3 expression was measured by qPCR in pancreatic tumors from P48-Cre; Kras LSL-G12D;Trp53fl/fl and P48-Cre; Kras LSL-G12D;Trp53fl/+ mice that are either wild type DKK3 or heterozygous or homozygous DKK3-null. Relative expression of DKK3 mRNA in DKK3+/− hetero mice is 53% of DKK3^+/+ mice. (FIG. 11B) DKK3 cell surface binding was assessed by incubating BxPC3 or L3.6p1 cells with His-tagged rhDKK3 (10 μg/ml) with or without JM6-6-1 (70 μg/ml) and positive cells were sorted by flow cytometry. (FIG. 11C) Mice bearing orthotopic BxPC3 tumors were treated with DKK3 mAb JM6-6-1 (5 mg/kg i.p. once every 5 days). Overall tumor progression was measured every 3-4 days by IVIS imaging.
Binding assay. Cell surface binding of DKK3 was performed using flow cytometry. In brief, BxPC3 or L3.6p1 cells (0.5×10^6) were incubated for 30 min with His-labeled rhDKK3 (10 μg/mL) with or without JM6-6-1 (70 μg/mL). After washing with binding buffer (3% BSA in PBS), cells were stained with 1:100 anti-His antibody (abCam) for 30 min and followed by staining with secondary antibody conjugated with Dylight488 for 20 min. The cells were fixed with 2% paraformaldehyde and were subjected to fluorescent signal detection by BD FACSCalibur.

4T1 TNBC cells = assay: 4T1 orthotopic mouse model of TNBC; format: in vivo
Experimental: (FIG. 13A) DKK3 expression was measured by RT-PCR in TNBC fibroblasts (BCF), human pancreatic stellate cells (HPSC) from pancreatic adenocarcinoma (PDAC), BxPC (PDAC cancer cell) and water control. (FIG. 13B) DKK3 protein was measured by Western blotting in BCF from TNBC, in ER-positive breast cancer cells, and in TNBC cancer cell lines. (FIG. 13C) DKK3 protein was measured in patient-derived xenograft (PDX) tumors from TNBC relative to recombinant human DKK3 (rhDKK3) and conditioned medium from HPSC (HPSC-CM). Actin was used as loading control. […] Data is pooled from TCGA, EGA and GEO.
FIGS. 14A-C. Treatment of TNBC orthotopic model with DKK3 mAb. […] Tumor growth was measured by calipers at day 33 after starting treatment and compared to initial tumor size prior to treatment. (FIG. 14B) 4T1 primary tumors and metastases were imaged using IVIS at day 33 after starting treatment. (FIG. 14C) Luciferase signal from 4T1 metastases was measured by IVIS at day 33 after starting treatment.
Treatment of TNBC orthotopic models with DKK3 mAb was also tested. An orthotopic model using 4T1 TNBC cells labeled with firefly luciferase was treated with PBS, a control antibody, or JM6-6-1. […] The mice were also imaged to detect the primary tumors and any metastases (FIG. 14B).

KPC cells = assay: Syngeneic orthotopic model with luciferase-labeled KPC cells in C57/BL6 mice; format: in vivo, mouse
Experimental: FIGS. 6A-F. DKK3 blockade is associated with increased tumor immune infiltrates and improves response to checkpoint inhibitor therapy. (FIG. 6A) T cells were stimulated, treated with DKK3 (5-10 μg/mL) and proliferation was measured by CFSE assay. In a syngeneic orthotopic model with luciferase-labeled KPC cells, tumors were examined for CD3 and CD8 expression by IHC (FIG. 6B) and additional markers of T cell activity were measured by quantitative PCR (FIG. 6C). Mice in this model were treated with either control IgG, DKK3 mAb JM6-6-1, αCTLA4 or the combination JM6-6-1+αCTLA4 and tumor growth was measured by IVIS imaging to 25 and 190 days (FIG. 6D). Survival in this orthotopic implantation model is shown in (FIG. 6E). Using a GEMM (FIG. 6F), KPC/DKK3^+/+ (black line) or KPC/DKK3^−/− (blue line) mice were treated with αCTLA4 or control IgG and the Kaplan Meier survival curve is shown. *p<0.05, **p<0.01, ***p<0.001.
An orthotopic nude mouse model of PDAC using BxPC3 cancer cells labeled with firefly luciferase (BxPC3-FL) co-injected with HPSCs has been previously described (Hwang et al., 2008). Mice received intrapancreatic injections of BxPC3-FL (1×10^6 per mouse) with HPSC-shControl or HPSC-shDKK3 in a tumor-to-stroma ratio of 1:0 or 1:3 in 50-μL of HBSS and tumor growth was monitored using IVIS imaging (Hwang et al., 2008). In addition, a syngeneic immunocompetent DKK3 null model was used, provided by Dr. C. Niehrs (Barrantes Idel et al., 2006), that was injected with murine PDAC cells (termed “KPC cells”) isolated from tumors arising in a GEMM of PDAC (Pdx1-Cre; Kras^LSL-G12D;Trp53^R172H/+) (Hingorani et al., 2005; Hingorani et al., 2003) and labeled with luciferase.
In order to determine whether manipulation of DKK3 can affect the response to checkpoint inhibitors, mice in the syngeneic orthotopic C57/BL6 model were treated with either isotype control IgG, DKK3 mAb JM6-6-1, α-CTLA4 or the combination of JM6-6-1 with α-CTLA4. […] With additional follow-up to day 200 (FIG. 6D, right), tumors in all groups continued to grow albeit at a slower rate in the JM6-6-1 and combination JM6-6-1+α-CTLA4 groups (FIG. 6D). […] Combination treatment JM6-6-1+α-CTLA4 was associated with a highly significant improvement in survival (p=0.004) and median survival was not reached in this group (FIG. 6E). […] In the combination treatment group, 80% of mice were alive and appeared healthy at 800 days and were electively sacrificed. In the JM6-6-1 group, 20% of mice were still alive at 726 days when they were electively sacrificed.

T1 sequence (Q9UBP4 22-350): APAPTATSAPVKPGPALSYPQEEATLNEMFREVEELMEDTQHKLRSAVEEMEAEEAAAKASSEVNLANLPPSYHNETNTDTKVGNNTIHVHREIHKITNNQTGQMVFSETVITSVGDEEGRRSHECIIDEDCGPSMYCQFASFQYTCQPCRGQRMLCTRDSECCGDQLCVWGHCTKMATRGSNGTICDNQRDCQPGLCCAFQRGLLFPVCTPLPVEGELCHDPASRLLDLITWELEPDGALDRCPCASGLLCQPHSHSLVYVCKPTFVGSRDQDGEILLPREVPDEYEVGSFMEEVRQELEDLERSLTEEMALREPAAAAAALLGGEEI

B1: JM6-6-1: monoclonal antibody against human DKK3; heavy chain variable SEQ ID NO: 19, light chain variable SEQ ID NO: 20 (antibody, V domains shown)
VH: EVKLVESGGGLVKPGGSLKLSCAASGFTFTIEYMAWIRQTPEKRLEWVASISSGGDDIYYADNVKGRFTISRDNAKNTLYLQMSSLKSEDTAIYYCSRSLSDWGQGTTLTVSSAKTTPPSDYPLA
VL: MTQTPLSLPVSLGDQASISCRSSQSILHSNGHTYLEWYLQKPGQSPKLLIYKVSNRFSGVPDRFSGSGSGTDFTLKISRVEAEDLGVYYCFQGSHVPFTFGSGTKLEIERADAAQ
- blocking of rhDKK3 binding to PDAC cells (DKK3): effective in blocking binding of rhDKK3 to PDAC cells
- luciferase signal from 4T1 metastases (4T1 TNBC cells; 5 mg/kg ip q5 days, IVIS day 33): prevented metastases
- tumor size at day 33 after starting treatment compared to controls (4T1 TNBC cells; 5 mg/kg ip q5 days, calipers): significantly smaller
- survival relative to control antibody and PBS (4T1 TNBC cells; 4T1 mouse model of TNBC): improved survival; also recorded: increased survival
- mice alive at 726 days (KPC cells; 726 days): 20%
- gross tumors in pancreata of remaining mice (KPC cells; at elective sacrifice): no gross tumors were identified
- tumor growth by luciferase signal (KPC cells; compared to control IgG): growth inhibition at 22 days and onward
- median survival (KPC cells; syngeneic orthotopic C57/BL6 model): 75 days
